Assay results from publication PMC6713926, “Structural Basis for Properdin Oligomerization and Convertase Stimulation in the Human Complement System” (Frontiers in Immunology, 2019).

B1: hFPNb1, FP specific non-inhibitory nanobody (VHH)
VHH: QVQLVESGGGLVQAGGSLRLSCAASERTFTIYAMGWFRQAPGKEREFVAAISRSGENTDYADSVKGRFTISRDNNKNTISLQMNSLKPEDTAVYYCAAGRAILVHTTKKEYDHWGQGTQVTVSS
notes: llama nanobody selected by phage display against FPc
B2: Recombinant FB D279G, S699A, K348A, L349A, K350A (enzyme, human, UniProt P00751 26-764, looked up)
chain: TPWSLARPQGSCSLEGVEIKGGSFRLLQEGQALEYVCPSGFYPYPVQTRTCRSTGSWSTLKTQDQKTVRKAECRAIHCPRPHDFENGEYWPRSPYYNVSDEISFHCYDGYTLRGSANRTCQVNGRWSGQTAICDNGAGYCSNPGIPIGTRKVGSQYRLEDSVTYHCSRGLTLRGSQRRTCQEGGSWSGTEPSCQDSFMYDTPQEVAEAFLSSLTETIEGVDAEDGHGPGEQQKRKIVLDPSGSMNIYLVLDGSGSIGASNFTGAKKCLVNLIEKVASYGVKPRYGLVTYATYPKIWVKVSEADSSNADWVTKQLNEINYEDHAAASGTNTKKALQAVYSMMSWPDDVPPEGWNRTRHVIILMTDGLHNMGGDPITVIDEIRDLLYIGKDRKNPREDYLDVYVFGVGPLVNQVNINALASKKDNEQHVFKVKDMENLEDVFYQMIDESQSLSLCGMVWEHRKGTDYHKQPWQAKISVIRPSKGHESCMGAVVSEYFVLTAAHCFTVDDKEHSIKVSVGGEKRDLEIEVVLFHPNYNINGKKEAGIPEFYDYDVALIKLKNKLKYGQTIRPICLPCTEGTTRALRLPPTTTCQQQKEELLPAQDIKALFVSEEEKKLTRKEVYIKNGDKKGSCERDAQYAPGYDKVKDISEVVTPRFLCTGGVSPYADPNTCRGDAGGPLIVHKRSRFIQVGVISWGVVDVCKNQKRQKQVPAHARDFHINLFQVLPWLKEKLQDEDLGFL
notes: complement factor B (FB), human; also called FB AAA; 348-AAA-350

Key:
[1] = target: T1, WT FP, recombinant oligomeric properdin (human, UniProt P27918); assay: pull-down; 50 μg hFPNb1 added to HEK293F supernatants of WT FP or E244 mutants, captured on Ni-NTA beads, washed with 500 mM NaCl, eluted with 400 mM imidazole; conditions: one partner purified
T1 construct: properdin (FP), human, wild type; Secreted oligomers; preparations of ~50% dimer and 50% trimer, and of ~90% dimer and 10% trimer, were used; also called oligomeric FP; dimeric FP; source: also in cell supernatant

[2] = target: T2, FPhtΔ3, FP head-tail monomer without TSR3 (Homo sapiens, UniProt P27918); assay: crystal structure; C3bBbSCIN-FPhtΔ3-hFPNb1 complex, 6.2 Å; 100 mM NaCl, 5% PEG4000, 10 mM MgCl2, 100 mM sodium cacodylate pH 5.8; conditions: both partners purified
T2 construct: properdin (FP), human, TB-TSR2 (FPhΔ3), made from FPh by a stop codon between TSR2 and TSR3; properdin (FP), human, TSR4-6 tail fragment (FPt); The methods name FPhtΔ3 for the crystals with C3bBbSCIN and hFPNb1, the results FPcΔ3; also called FPcΔ3 (so called in the results for the nanobody complex); FPΔ3

[3] = target: T3, Biotinylated C3b (human, UniProt P01024 23-667; P01024 749-1663, biotin (Maleimide-PEG2-Biotin)); assay: BLI; biotinylated C3b on streptavidin sensors; FB variants at 40 μg/mL; 20 mM MES pH 6.0, 100 mM NaCl, 0.05% Tween, 1 mg/mL BSA, 5 mM MgCl2; conditions: both partners purified
T3 construct: complement C3, human, beta chain; complement C3, human, alpha' chain of C3b; also called biotin-C3b; immobilized C3b; source: made from plasma C3 by trypsin cleavage in the presence of Maleimide-PEG2-Biotin, purified by cation exchange
T3 sequence (P01024 23-667, chain 1 of 2): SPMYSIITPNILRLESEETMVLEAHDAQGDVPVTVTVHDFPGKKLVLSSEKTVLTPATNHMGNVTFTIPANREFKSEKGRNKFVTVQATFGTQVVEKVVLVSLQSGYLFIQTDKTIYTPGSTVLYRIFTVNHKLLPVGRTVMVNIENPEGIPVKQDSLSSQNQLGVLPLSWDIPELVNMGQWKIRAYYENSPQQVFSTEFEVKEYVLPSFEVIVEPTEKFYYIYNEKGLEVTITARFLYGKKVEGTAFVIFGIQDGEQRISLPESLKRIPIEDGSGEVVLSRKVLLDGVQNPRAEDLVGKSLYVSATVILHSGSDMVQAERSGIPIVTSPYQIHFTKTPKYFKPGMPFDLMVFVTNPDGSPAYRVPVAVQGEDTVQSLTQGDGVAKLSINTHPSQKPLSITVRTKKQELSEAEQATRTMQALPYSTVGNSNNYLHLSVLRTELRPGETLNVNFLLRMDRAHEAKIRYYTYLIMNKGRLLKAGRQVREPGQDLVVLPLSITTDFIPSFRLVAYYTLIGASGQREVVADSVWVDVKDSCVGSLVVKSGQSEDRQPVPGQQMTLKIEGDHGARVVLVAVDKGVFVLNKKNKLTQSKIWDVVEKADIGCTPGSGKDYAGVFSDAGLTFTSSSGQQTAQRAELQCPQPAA
T3 sequence (P01024 749-1663, chain 2 of 2): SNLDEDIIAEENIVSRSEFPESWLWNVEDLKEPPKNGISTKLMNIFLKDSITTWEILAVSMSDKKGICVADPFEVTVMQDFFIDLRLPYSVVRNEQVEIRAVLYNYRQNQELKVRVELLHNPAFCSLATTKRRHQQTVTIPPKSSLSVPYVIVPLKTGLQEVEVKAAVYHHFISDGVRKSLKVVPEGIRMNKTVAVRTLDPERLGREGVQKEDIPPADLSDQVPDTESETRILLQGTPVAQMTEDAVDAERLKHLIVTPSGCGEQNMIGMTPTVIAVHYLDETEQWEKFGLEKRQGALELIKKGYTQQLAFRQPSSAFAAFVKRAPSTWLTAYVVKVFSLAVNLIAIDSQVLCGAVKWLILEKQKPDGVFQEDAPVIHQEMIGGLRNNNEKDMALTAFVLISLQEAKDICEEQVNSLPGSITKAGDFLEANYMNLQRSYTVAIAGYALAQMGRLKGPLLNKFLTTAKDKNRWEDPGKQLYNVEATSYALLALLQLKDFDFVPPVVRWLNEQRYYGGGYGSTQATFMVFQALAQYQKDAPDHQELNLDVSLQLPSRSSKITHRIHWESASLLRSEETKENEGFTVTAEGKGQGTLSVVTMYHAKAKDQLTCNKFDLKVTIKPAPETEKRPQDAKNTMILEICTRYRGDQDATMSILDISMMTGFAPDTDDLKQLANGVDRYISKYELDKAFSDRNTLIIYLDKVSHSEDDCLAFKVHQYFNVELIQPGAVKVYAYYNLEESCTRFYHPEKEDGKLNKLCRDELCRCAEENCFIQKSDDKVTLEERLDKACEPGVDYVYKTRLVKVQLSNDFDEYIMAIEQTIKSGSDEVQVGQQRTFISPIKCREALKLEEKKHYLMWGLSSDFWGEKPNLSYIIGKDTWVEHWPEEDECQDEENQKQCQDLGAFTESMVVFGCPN

T1 sequence (P27918 28-469): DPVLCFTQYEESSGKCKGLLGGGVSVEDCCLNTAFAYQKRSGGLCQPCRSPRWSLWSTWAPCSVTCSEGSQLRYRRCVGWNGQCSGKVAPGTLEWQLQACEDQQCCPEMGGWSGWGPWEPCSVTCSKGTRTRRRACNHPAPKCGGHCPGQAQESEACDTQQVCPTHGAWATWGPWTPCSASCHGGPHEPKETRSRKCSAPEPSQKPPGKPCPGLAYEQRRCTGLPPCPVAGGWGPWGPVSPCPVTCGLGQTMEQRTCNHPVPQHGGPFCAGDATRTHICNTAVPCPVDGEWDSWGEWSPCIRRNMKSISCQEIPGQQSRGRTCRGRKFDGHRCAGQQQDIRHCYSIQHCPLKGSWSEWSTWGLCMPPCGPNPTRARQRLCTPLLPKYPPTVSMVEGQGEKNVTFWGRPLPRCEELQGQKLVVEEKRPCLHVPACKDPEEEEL
T2 sequence (P27918 whole entry, looked up, stated change not applied, the tested form may be a part): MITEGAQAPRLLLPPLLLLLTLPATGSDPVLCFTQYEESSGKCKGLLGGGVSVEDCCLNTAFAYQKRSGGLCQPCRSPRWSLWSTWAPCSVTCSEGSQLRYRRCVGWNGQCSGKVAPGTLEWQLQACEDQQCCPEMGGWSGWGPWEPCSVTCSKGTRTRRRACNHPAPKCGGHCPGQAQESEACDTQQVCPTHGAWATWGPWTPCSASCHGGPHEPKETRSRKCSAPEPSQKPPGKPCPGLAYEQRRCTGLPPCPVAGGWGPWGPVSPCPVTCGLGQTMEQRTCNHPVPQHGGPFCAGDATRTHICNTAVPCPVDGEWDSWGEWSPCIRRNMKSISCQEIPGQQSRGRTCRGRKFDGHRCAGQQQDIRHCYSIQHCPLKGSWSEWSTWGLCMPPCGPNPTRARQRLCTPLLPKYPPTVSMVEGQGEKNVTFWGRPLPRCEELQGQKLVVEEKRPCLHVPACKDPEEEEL

Row | Binder | binding result [1] | binding result [2] | binding result [3]
1 | B1 | binds | binds | 
2 | B2 |  |  | binds
